Tests used:
[1] = target: human FGFR1c_β-klotho receptor complex (on HEK293 cells) (human, UniProt P11362 22-822); assay: cell-based or functional assay
[2] = target: cynomolgus monkey FGFR1c_β-klotho receptor complex (on HEK293 cells) (cynomolgus monkey; human, UniProt A0A2K5WB58 1-1044; P11362 22-822); assay: cell-based or functional assay
[3] = target: T1, human β-klotho (soluble, recombinant) (human, UniProt Q86Z14 53-997, limits assumed); assay: Biacore kinetics; IgG captured by anti-human Fc, human β-klotho as analyte
T1 construct: also called recombinant human β-klotho; beta-klotho
T1 sequence: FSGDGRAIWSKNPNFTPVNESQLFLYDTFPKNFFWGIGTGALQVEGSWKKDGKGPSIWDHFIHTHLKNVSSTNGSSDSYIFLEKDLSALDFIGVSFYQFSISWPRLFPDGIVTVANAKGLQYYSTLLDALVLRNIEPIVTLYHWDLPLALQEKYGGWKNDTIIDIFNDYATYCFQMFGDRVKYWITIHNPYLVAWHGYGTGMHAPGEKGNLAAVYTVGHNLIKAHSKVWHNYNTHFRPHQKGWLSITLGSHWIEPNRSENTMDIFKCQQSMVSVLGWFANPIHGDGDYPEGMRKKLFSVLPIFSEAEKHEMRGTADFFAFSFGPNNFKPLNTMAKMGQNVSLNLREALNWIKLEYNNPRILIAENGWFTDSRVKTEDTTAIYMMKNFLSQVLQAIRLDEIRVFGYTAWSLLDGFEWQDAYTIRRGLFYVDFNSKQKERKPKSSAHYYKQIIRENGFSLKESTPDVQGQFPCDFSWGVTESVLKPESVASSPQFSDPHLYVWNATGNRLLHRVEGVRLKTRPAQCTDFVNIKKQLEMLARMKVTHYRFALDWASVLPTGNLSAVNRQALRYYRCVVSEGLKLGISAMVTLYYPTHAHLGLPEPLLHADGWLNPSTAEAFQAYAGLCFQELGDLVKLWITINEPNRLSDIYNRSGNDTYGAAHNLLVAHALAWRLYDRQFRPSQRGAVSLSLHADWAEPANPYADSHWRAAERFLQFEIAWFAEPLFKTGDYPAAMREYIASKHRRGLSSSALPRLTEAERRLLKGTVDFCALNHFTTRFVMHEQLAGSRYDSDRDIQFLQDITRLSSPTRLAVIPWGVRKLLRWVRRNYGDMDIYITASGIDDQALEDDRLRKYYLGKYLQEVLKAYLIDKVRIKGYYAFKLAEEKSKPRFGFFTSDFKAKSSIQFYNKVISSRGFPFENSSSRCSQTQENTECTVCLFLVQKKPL
Experimental: Binding affinities of antibodies were determined using Biacore kinetic analysis. A Series S Sensor Chip CMS (GE Healthcare, Cat. No. BR-1005-30) was equilibrated to ambient temperature for approximately 30 minutes The system was primed with 1×HBS-EP+ buffer (10×soln, GE Healthcare, Cat. No. BR-1006-69) and the chip was loaded into the Biacore instrument. The chip was normalized using BIAnormalizing (GE Healthcare, Cat. No. BR-1006-51) solution and the chip was conditioned with 50 mM NaOH using a flow rate of 60 μL/minute for all flow paths. The 30 second injection was repeated three times with a wait time of 60 seconds. 10 mM sodium acetate pH 5.0 was injected at 60 μL/minute for 120 seconds and repeated twice. After a new cycle was started for immobilizing the anti-human IgG Fc using the Human Antibody Capture Kit (GE Healthcare, Cat. No. BR-1008-39). The anti-human Fc Ab was diluted to 50 μg/mL in immobilization buffer (10 mM sodium acetate pH 5.0). The amine coupling reagents were mixed 1:1 (EDC and NHS) and injected for 7 minutes at 10 μL/minute. Then anti-human Fc Ab was injected for 6 minutes at 10 μL/minute. Lastly ethanolamine was injected for 7 minutes at 10 μL/minute with a wait time of 60 seconds. This should result in immobilization of approximately 8000-10000 RU. Then we performed test injections for an Rmax of 10 RUs (capture levels=˜28 RUs) for NOV004, NOV005 and NOV006. This was done using a flow rate of […] and a 3 M MgCl₂ regeneration buffer. Each flow cell was evaluated each time due to changes in chip surface, affinity of IgGs, IgG protein quality and differences in dilutions. We started with an IgG concentration of 0.5 ug/mL and increased (or decreased) the concentration depending on the results from the sample injections. […] After capturing parameters were determined for each antibody in each flow cell, human β-klotho at various concentrations was passed over the chip and kₐ (1/Ms), kd (1/s), KD (M), and Rmax (RU) were calculated by Biacore kinetics.
In vitro work was done to show the binding and cell activity properties of NOV004, NOV005, and NOV006. […]

human FGFR1c_β-klotho receptor complex (on HEK293 cells), sequence (chain, as listed by the source, chain 1 of 2): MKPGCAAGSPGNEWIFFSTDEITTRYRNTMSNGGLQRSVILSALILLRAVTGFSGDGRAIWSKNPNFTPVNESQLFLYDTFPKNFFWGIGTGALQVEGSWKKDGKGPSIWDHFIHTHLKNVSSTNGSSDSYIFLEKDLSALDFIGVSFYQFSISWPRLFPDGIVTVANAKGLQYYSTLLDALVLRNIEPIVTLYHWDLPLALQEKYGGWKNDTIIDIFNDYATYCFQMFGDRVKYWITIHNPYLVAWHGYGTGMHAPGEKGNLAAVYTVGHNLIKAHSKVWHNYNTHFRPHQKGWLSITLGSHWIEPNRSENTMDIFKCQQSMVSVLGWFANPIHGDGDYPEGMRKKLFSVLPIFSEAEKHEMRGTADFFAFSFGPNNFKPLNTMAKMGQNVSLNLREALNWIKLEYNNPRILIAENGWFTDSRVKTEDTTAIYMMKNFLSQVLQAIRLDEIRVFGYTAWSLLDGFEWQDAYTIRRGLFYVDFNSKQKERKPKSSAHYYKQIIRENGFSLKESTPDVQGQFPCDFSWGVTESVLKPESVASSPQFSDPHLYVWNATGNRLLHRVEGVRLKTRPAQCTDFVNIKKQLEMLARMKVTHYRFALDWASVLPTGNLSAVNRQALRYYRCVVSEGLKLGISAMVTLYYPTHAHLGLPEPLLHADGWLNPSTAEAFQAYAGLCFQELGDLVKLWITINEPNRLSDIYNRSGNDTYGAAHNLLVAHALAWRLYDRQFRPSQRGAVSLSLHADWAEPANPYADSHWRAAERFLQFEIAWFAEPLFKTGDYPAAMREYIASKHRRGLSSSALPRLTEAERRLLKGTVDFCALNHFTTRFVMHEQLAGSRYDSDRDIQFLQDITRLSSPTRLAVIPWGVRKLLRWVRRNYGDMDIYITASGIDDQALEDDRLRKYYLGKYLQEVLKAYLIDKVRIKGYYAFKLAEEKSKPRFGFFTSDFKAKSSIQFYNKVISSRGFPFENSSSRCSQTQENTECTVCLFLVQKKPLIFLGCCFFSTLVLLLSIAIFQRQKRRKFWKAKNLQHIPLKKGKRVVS
human FGFR1c_β-klotho receptor complex (on HEK293 cells), sequence (P11362 22-822, chain 2 of 2): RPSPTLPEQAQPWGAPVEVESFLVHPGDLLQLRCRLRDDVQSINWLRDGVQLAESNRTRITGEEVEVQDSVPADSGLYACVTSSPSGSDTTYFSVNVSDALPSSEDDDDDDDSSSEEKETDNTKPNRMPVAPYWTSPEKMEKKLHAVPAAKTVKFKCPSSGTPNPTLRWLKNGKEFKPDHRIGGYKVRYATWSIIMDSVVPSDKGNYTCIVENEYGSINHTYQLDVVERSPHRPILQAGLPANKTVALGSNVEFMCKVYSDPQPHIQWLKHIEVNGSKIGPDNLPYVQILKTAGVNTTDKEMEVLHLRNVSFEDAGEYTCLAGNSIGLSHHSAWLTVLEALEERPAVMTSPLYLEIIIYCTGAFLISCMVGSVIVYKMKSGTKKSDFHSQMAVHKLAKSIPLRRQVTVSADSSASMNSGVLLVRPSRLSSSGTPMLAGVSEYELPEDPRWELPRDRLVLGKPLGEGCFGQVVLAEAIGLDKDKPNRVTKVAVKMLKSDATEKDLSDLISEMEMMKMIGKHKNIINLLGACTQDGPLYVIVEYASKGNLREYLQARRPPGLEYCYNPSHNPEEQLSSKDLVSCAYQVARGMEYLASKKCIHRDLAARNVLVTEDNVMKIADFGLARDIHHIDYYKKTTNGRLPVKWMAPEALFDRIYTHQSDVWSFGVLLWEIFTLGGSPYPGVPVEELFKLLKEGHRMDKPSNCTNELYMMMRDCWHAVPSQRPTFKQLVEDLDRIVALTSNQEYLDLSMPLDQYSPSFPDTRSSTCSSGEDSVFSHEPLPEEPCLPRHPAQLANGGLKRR
cynomolgus monkey FGFR1c_β-klotho receptor complex (on HEK293 cells), sequence (chain, as listed by the source, chain 1 of 2): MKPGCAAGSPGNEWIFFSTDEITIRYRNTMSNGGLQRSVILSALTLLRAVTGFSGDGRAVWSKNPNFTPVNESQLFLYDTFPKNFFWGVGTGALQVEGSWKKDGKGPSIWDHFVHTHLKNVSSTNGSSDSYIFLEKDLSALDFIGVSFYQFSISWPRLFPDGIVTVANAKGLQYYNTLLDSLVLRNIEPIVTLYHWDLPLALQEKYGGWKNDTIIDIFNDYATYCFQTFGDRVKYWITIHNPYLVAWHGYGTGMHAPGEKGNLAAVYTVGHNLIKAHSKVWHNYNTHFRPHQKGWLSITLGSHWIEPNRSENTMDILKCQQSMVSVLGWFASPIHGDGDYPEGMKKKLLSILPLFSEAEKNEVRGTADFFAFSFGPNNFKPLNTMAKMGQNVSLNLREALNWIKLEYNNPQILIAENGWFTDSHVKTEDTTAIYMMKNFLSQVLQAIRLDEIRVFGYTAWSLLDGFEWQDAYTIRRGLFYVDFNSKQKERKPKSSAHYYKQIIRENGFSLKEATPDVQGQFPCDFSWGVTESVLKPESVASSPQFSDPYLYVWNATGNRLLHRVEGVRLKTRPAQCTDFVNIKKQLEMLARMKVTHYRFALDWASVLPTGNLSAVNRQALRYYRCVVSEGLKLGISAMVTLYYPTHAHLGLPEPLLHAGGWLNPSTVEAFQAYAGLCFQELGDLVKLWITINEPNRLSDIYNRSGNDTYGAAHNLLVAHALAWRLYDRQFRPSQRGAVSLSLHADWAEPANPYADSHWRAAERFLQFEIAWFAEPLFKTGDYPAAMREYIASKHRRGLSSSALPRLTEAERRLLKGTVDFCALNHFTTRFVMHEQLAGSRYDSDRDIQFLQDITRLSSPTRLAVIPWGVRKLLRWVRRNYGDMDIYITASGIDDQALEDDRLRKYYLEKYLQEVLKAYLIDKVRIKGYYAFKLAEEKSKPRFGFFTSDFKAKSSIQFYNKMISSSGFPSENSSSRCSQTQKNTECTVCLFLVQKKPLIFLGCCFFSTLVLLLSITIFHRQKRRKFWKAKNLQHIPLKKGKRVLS
cynomolgus monkey FGFR1c_β-klotho receptor complex (on HEK293 cells), sequence (P11362 22-822, chain 2 of 2): as the sequence (P11362 22-822, chain 2 of 2) above

B1: NOV004 (antibody, human IgG1, kappa, V domains shown)
VH: EVQLVESGGGLVKPGGSLRLSCAVSGYSITSGYTWHWVRQAPGKGLEWLSYIHYSVYTNYNPSVKGRFTISRDTAKNSFYLQMNSLRAEDTAVYYCARRTTSLERYFDVWGQGTLVTVSS
VL: DIQMTQSPSSLSASVGDRVTITCQASQDISNYLNWYQQKPGKAPKLLIYYTSRLQSGVPSRFTGSGSGADYTFTISSLQPEDIATYFCQQGNTLPYTFGQGTKLEIKR
notes: Humanized mAb derived from mouse hybridoma 127F19
- pERK activation EC50 [1]: ~3 nM
- pERK activation EC50 [2]: ~20 nM
- Kd [3]: ~0.3 nM

B2: NOV005 (antibody, human IgG1, kappa, V domains shown)
VH: QVQLQESGPGLVKPSQTLSLTCTVSGYSITSGYTWHWIRQHPGKGLEWIGYIHYSVYTNYNPSLKSRVTISRDTSKNQFSLKLSSVTAADTAVYYCARRTTSLERYFDVWGQGTLVTVSS
VL: DIQMTQSPSSLSASVGDRVTITCQASQDISNYLNWYQQKPGKAPKLLIYYTSRLQSGVPSRFSGSGSGADYTFTISSLQPEDIATYFCQQGNTLPYTFGQGTKLEIKR
notes: as for B1
- pERK activation EC50 [1]: ~3 nM
- pERK activation EC50 [2]: ~16 nM
- Kd [3]: ~0.3 nM

B3: NOV006 (antibody, human IgG1, kappa, V domains shown)
VH: QVQLQESGPGLVKPSQTLSLTCTVSGYSITSGYTWHWIRQHPGKGLEWIGYIHYSVYTNYNPSLKSRVTISRDTSKNQFSLKLSSVTAADTAVYYCARRTTSLERYFDVWGQGTLVTVSS
VL: EIVMTQSPATLSLSPGERATLSCRASQDISNYLNWYQQKPGQAPRLLIYYTSRLQSGIPARFSGSGSGADYTLTISSLQPEDFAVYFCQQGNTLPYTFGQGTKLEIKR
notes: as for B1
- pERK activation EC50 [1]: ~4 nM
- pERK activation EC50 [2]: ~18 nM
- Kd [3]: ~0.4 nM
